From the supplement of paper PMC11246515
± gives the standard deviation of the averaged measurements.

Assay: total protein half-life in vivo (active degradation + dilution); higher = more stable protein
[1] = E. coli NCM3722 delta-clpP delta-lon delta-hslV, growth: N-lim chemostat, doubling time 6 h
[2] = E. coli NCM3722 delta-clpP, growth: N-lim chemostat, doubling time 6 h
[3] = E. coli NCM3722 delta-hslV, growth: N-lim chemostat, doubling time 6 h
[4] = E. coli NCM3722 delta-lon, growth: N-lim chemostat, doubling time 6 h
[5] = E. coli NCM3722 delta-smpB, growth: N-lim chemostat, doubling time 6 h
[6] = wild type E. coli NCM3722, growth: C-lim chemostat, doubling time 3 h
[7] = wild type E. coli NCM3722, growth: C-lim chemostat, doubling time 6 h
[8] = wild type E. coli NCM3722, growth: C-lim chemostat, doubling time 12 h
[9] = wild type E. coli NCM3722, growth: N-lim chemostat, doubling time 6 h
[10] = wild type E. coli NCM3722, growth: N-lim chemostat, doubling time 12 h
[11] = wild type E. coli NCM3722, growth: P-lim chemostat, doubling time 6 h
[12] = wild type E. coli NCM3722, growth: P-lim chemostat, doubling time 12 h

| Sequence | total protein half-life in vivo [1] [h] | total protein half-life in vivo [2] [h] | total protein half-life in vivo [3] [h] | total protein half-life in vivo [4] [h] | total protein half-life in vivo [5] [h] | total protein half-life in vivo [6] [h] | total protein half-life in vivo [7] [h] | total protein half-life in vivo [8] [h] | total protein half-life in vivo [9] [h] | total protein half-life in vivo [10] [h] | total protein half-life in vivo [11] [h] | total protein half-life in vivo [12] [h] |
| --- | --- | --- | --- | --- | --- | --- | --- | --- | --- | --- | --- | --- |
| MQDLISQVEDLAGIEIDHTTSMVMIFGIIFLTAVVVHIILHWVVLRTFEKRAIASSRLWLQIITQNKLFHRLAFTLQGIIVNIQAVFWLQKGTEAADILTTCAQLWIMMYALLSVFSLLDVILNLAQKFPAASQLPLKGIFQGIKLIGAILVGILMISLLIGQSPAILISGLGAMAAVLMLVFKDPILGLVAGIQLSANDMLKLGDWLEMPKYGADGAVIDIGLTTVKVRNWDNTITTIPTWSLVSDSFKNWSGMSASGGRRIKRSISIDVTSIRFLDEDEMQRLNKAHLLKPYLTSRHQEINEWNRQQGSTESVLNLRRMTNIGTFRAYLNEYLRNHPRIRKDMTLMVRQLAPGDNGLPLEIYAFTNTVVWLEYESIQADIFDHIFAIVEEFGLRLHQSPTGNDIRSLAGAFKQ [P0AAT4] | 6.49 ± 0.43 | 6.36 ± 0.28 | 6.274 ± 0.01 | 6.69 ± 1.4 | 6.33 ± 0.022 | 3.52 ± 0.6 | 6.12 ± 0.22 | 13.9 ± 0.19 | 6.22 ± 0.46 | 12 ± 1.6 | 5.84 ± 0.59 | 13.7 ± 1.2 |
| MQDRNFDDIAEKFSRNIYGTTKGQLRQAILWQDLDRVLAEMGPQKLRVLDAGGGEGQTAIKMAERGHQVILCDLSAQMIDRAKQAAEAKGVSDNMQFIHCAAQDVASHLETPVDLILFHAVLEWVADPRSVLQTLWSVLRPGGVLSLMFYNAHGLLMHNMVAGNFDYVQAGMPKKKKRTLSPDYPRDPAQVYLWLEEAGWQIMGKTGVRVFHDYLREKHQQRDCYEALLELETRYCRQEPYITLGRYIHVTARKPQSKDKV | 4.99 ± 0.24 | 4.498 ± 0.018 | 3.95 ± 0.13 | 4.57 ± 0.49 | 4.304 ± 0.012 | 2.96 ± 0.23 | 5.46 ± 0.57 | 10.2 ± 0.95 | 4.21 ± 0.36 | 7.11 ± 0.55 | 5.32 ± 0.21 | 11 ± 0.42 |
| MQDSILTTVVKDIDGEVTTLEKFAGNVLLIVNVASKCGLTPQYEQLENIQKAWVDRGFMVLGFPCNQFLEQEPGSDEEIKTYCTTTWGVTFPMFSKIEVNGEGRHPLYQKLIAAAPTAVAPEESGFYARMVSKGRAPLYPDDILWNFEKFLVGRDGKVIQRFSPDMTPEDPIVMESIKLALAK | 5.18 ± 1.1 | 4.68 ± 0.55 | 4.23 ± 0.055 | 4.73 ± 0.43 | 4.24 ± 0.047 | 2.82 ± 0.28 | 4.93 ± 0.1 | 7.87 ± 4.7 | 3.99 ± 0.07 | 6.05 ± 0.29 | 4.87 ± 0.1 | 11.1 ± 0.68 |
| MQEGQNRKTSSLSILAIAGVEPYQEKPGEEYMNEAQLAHFRRILEAWRNQLRDEVDRTVTHMQDEAANFPDPVDRAAQEEEFSLELRNRDRERKLIKKIEKTLKKVEDEDFGYCESCGVEIGIRRLEARPTADLCIDCKTLAEIREKQMAG [P0ABS1] | 6.12 ± 0.34 | 6.26 ± 1.2 | 3.53 ± 0.55 | 3.95 ± 0.44 | 3.12 ± 0.035 | 1.68 ± 0.14 | 3.27 ± 0.28 | 5.07 ± 0.47 | 3.65 ± 0.58 | 7.03 ± 0.073 | 3.71 ± 0.66 | 9.06 ± 0.61 |
| MQENSPLLQLQNVGYLAGDAKILNNINFSLRAGEFKLITGPSGCGKSTLLKIVASLISPTSGTLLFEGEDVSTLKPEIYRQQVSYCAQTPTLFGDTVYDNLIFPWQIRNRQPDPAIFLDFLERFALPDSILTKNIAELSGGEKQRISLIRNLQFMPKVLLLDEITSALDESNKHNVNEMIHRYVREQNIAVLWVTHDKDEINHADKVITLQPHAGEMQEARYELA | 5.05 ± 0.21 | 5 ± 0.8 | 5.16 ± 0.41 | 4.59 ± 0.41 | 6.21 ± 1.8 | 2.7 ± 0.38 | 6.58 ± 0.68 | 9.76 | 5.2 ± 0.14 | 9.23 ± 0.8 | 5.43 ± 0.2 | 11.7 ± 1.6 |
| MQENYKILVVDDDMRLRALLERYLTEQGFQVRSVANAEQMDRLLTRESFHLMVLDLMLPGEDGLSICRRLRSQSNPMPIIMVTAKGEEVDRIVGLEIGADDYIPKPFNPRELLARIRAVLRRQANELPGAPSQEEAVIAFGKFKLNLGTREMFREDEPMPLTSGEFAVLKALVSHPREPLSRDKLMNLARGREYSAMERSIDVQISRLRRMVEEDPAHPRYIQTVWGLGYVFVPDGSKA [P0AA16] | 5.29 ± 0.46 | 6.03 ± 1.6 | 5.25 ± 0.31 | 6.35 ± 0.91 | 4.73 ± 0.46 | 3.32 ± 0.41 | 5.849 ± 0.017 | 10.3 ± 0.2 | 4.67 ± 0.22 | 8.55 ± 0.08 | 5.66 ± 0.17 | 11 ± 0.14 |
| MQFNIPTLLTLFRVILIPFFVLVFYLPVTWSPFAAALIFCVAAVTDWFDGFLARRWNQSTRFGAFLDPVADKVLVAIAMVLVTEHYHSWWVTLPAATMIAREIIISALREWMAELGKRSSVAVSWIGKVKTTAQMVALAWLLWRPNIWVEYAGIALFFVAAVLTLWSMLQYLSAARADLLDQ [P0ABF8] | 7.82 | 6.476 ± 0.013 | – | 5.76 | 5.9 | 3.1 ± 0.097 | 5.64 ± 0.51 | 15.4 | – | 9.62 ± 4.9 | 6.75 ± 1.5 | 12.1 ± 1.3 |
